# Reference: patent US20120301469A1
# Experiments:
# [1] = biological target: protein F of hRSV strain B-1 (on RSV B-1-infected Hep2 cells and on virus) (human respiratory syncytial virus, strain B-1) (UniProt P13843); test: cell-based or functional assay
# [2] = biological target: protein F of hRSV strain Long, on virus (inactivated hRSV Long, Hytest #8RSV79; RSV Long LM-2, ATCC VR-26) (human respiratory syncytial virus, strain Long) (UniProt P12568); test: cell-based or functional assay
# [3] = biological target: hRSV FTM-NN (membrane anchorless form of the Long fusion protein, 70 kDa) (human respiratory syncytial virus, strain Long) (UniProt P12568); test: SPR (Biacore), FTM-NN amine-coupled on CM5 chip, 1:1 Langmuir fit
Substance,Neutralization B-1 IC50 [1] [nM],Neutralization Long IC50 [2] [nM],Kd [3] [nM],koff [3] [s⁻¹],kon [3] [M⁻¹ s⁻¹]
"101F Fab (WO 06/050280, humanized monoclonal antibody, in-house produced)",180,,,,
"Synagis® Mab (Palivizumab, humanized monoclonal antibody)",3.9,5.96,0.64,0.00018,280000
